Results as given in PMC9893218.

Target: trastuzumab
Assay: SEC + native MS

## trastuzumab (antibody)
  stoichiometry N: 2
